Our source for the Km and kcat values is article PMC3360062.

Substrate in this series: C[C@H](N)C(=O)O
Put plainly: purified protein. Conditions: 0.5 mM ATP, 10 mM MgCl2, 50 mM Tris-HCl pH 7.5, 25°C, 0.25 µM enzyme, 5 min, alanine 0.1-0.5 mM.

B1: Sare0718 (Salinispora arenicola) (protein)
chain: QRTSTTTTAETTTSTRATGRTNLPASPYPIHPPEPLATLSPRDRALFVRFGYGPTESVAHTHIHHAFEYWATVTPEAVAVEDGDETITYRELDQRADQLAARLAASGVRPGDRVALFVRRSIPMVVGLLAALKAGAAYVPQHVDTVPPAQLQHVIHTADTRVIMTLAATADRIPVPDGHVVITLDDLGKTEPTDLIAGRFTPATPLPPDSPCYVLFTSGSTGRPNGVVVTHRNICNILLTSPGNLGIQPGWKVGQILNIAFDMASWEILGALSHGATLVIRGSDIVETMSRVDVIIATPTVLSRTDPDRCQRVKVVAVAGEPCPRALADAWSAVCAFYNACGPTETTIVNTMSRHRPTAERLTIGRPTPNNTVYVLDADLRPCPIGTVGEMWAGGDCVSAGYLSNARLTAERYALDPFLGHGRLMFRTRDLGRWTPDGELEHFGRTDDQVKVRGFRVELDSVSAILEAVPGCTRAATIKLDDRSLVSFVAPAEVDPDLARMAVSEALPYYCVPETVHTLPELPTTSRGKIDKLALRRLVTRQDQLVTSQEQGATR
With B1, the Km (commonly the concentration of substrate that gives half-maximal velocity) turned out to be 116.4 ± 15.9 µM and the kcat (usually the maximal rate divided by the concentration of active sites) amounted to 0.209893 ± 0.00852 s⁻¹.
